{"source": "patent US20180346531", "key": {"[1]": {"system": "SR71-KRAB ATF (synthetic construct)", "assay": "cell_activity", "conditions": "luciferase reporter with target site in HEK293T, p<0.05"}, "[2]": {"system": "S1-KRAB ATF (synthetic construct)", "assay": "cell_activity", "conditions": "luciferase reporter with target site in HEK293T, p<0.05"}, "[3]": {"system": "S1 zinc finger array (six-finger ATF) (synthetic construct)", "assay": "EMSA", "conditions": "ZBA (10 mM Tris pH 8.5, 90 mM KCl, 1 mM MgCl2, 100 uM ZnCl2), 0.05% NP-40, 0.1 mg/mL BSA, glycerol, room temperature 1.5 h; apparent KD, average of at least …"}}, "data": [{"sequence": "GCAGGACCTGCTGCACTG (double strand) [SR71 target site (18 bp)]", "values": [{"measurement": "activity (fold repression)", "setting": "[1]", "value": "> 5"}]}, {"sequence": "CATGCGTAGGGAGCCGCG (double strand) [S1 target site (18 bp; Snurf promoter)]", "values": [{"measurement": "activity (fold repression)", "setting": "[2]", "value": "> 5"}]}, {"sequence": "CCTCTTCGCTATTACGCCAGCCATGCGTAGGGAGCCGCGGAACGTTCGATCGTACTCGAGTCAGGGTG (double strand) [S1 EMSA target]", "values": [{"measurement": "Kd", "setting": "[3]", "value": 3, "unit": "nM"}]}]}
